US20070078092A1 (CUREGENICS, published 2007)
Square brackets hold non-standard residues; d marks the D form. Ends that are not written are not given here. * marks the point of attachment. Cholesteryloxycarbonyl = CC(C)CCC[C@@H](C)[C@H]1CC[C@H]2[C@@H]3CC=C4C[C@@H](OC(=O)*)CC[C@]4(C)[C@H]3CC[C@]12C; Lithocholoyl = C[C@H](CCC(=O)*)[C@H]1CC[C@H]2[C@@H]3CC[C@@H]4C[C@H](O)CC[C@]4(C)[C@H]3CC[C@]12C; FITC = O=C1OC2(c3ccc(O)cc3Oc3cc(O)ccc32)c2ccc(NC(=S)*)cc21; hLeu = CC(C)CC[C@H](N)C(=O)O; VitB6 = vitamin B6 moiety; Orn = NCCC[C@H](N)C(=O)O; Nva = CCC[C@H](N)C(=O)O; Dap = NC[C@H](N)C(=O)O

B1: PTR 6390 (peptide)
peptide: Cholesteryloxycarbonyl-RPR[Nva]Y[Dap]-OH
SMILES: CCC[C@H](NC(=O)[C@H](CCCNC(=N)N)NC(=O)[C@@H]1CCCN1C(=O)[C@H](CCCNC(=N)N)NC(=O)O[C@H]1CC[C@@]2(C)C(=CC[C@H]3[C@@H]4CC[C@H]([C@H](C)CCCC(C)C)[C@@]4(C)CC[C@@H]32)C1)C(=O)N[C@@H](Cc1ccc(O)cc1)C(=O)N[C@@H](CN)C(=O)O
B2: PTR 6386 (peptide)
peptide: Cholesteryloxycarbonyl-[Orn]P[Orn][Nva]Y[Dap][hLeu]-NH2
SMILES: CCC[C@H](NC(=O)[C@H](CCCN)NC(=O)[C@@H]1CCCN1C(=O)[C@H](CCCN)NC(=O)O[C@H]1CC[C@@]2(C)C(=CC[C@H]3[C@@H]4CC[C@H]([C@H](C)CCCC(C)C)[C@@]4(C)CC[C@@H]32)C1)C(=O)N[C@@H](Cc1ccc(O)cc1)C(=O)N[C@@H](CN)C(=O)N[C@@H](CCC(C)C)C(N)=O
B3: PTR 6388 (peptide)
peptide: Cholesteryloxycarbonyl-RP[Orn][Nva]Y[Dap][hLeu]-NH2
SMILES: CCC[C@H](NC(=O)[C@H](CCCN)NC(=O)[C@@H]1CCCN1C(=O)[C@H](CCCNC(=N)N)NC(=O)O[C@H]1CC[C@@]2(C)C(=CC[C@H]3[C@@H]4CC[C@H]([C@H](C)CCCC(C)C)[C@@]4(C)CC[C@@H]32)C1)C(=O)N[C@@H](Cc1ccc(O)cc1)C(=O)N[C@@H](CN)C(=O)N[C@@H](CCC(C)C)C(N)=O
B4: PTR 6382 (peptide)
peptide: Cholesteryloxycarbonyl-[Orn]PR[Nva]Y[Dap][hLeu]-NH2
SMILES: CCC[C@H](NC(=O)[C@H](CCCNC(=N)N)NC(=O)[C@@H]1CCCN1C(=O)[C@H](CCCN)NC(=O)O[C@H]1CC[C@@]2(C)C(=CC[C@H]3[C@@H]4CC[C@H]([C@H](C)CCCC(C)C)[C@@]4(C)CC[C@@H]32)C1)C(=O)N[C@@H](Cc1ccc(O)cc1)C(=O)N[C@@H](CN)C(=O)N[C@@H](CCC(C)C)C(N)=O
B5: PTR 6380 (peptide)
peptide: H-[Orn]PR[Nva]Y[Dap][hLeu]-NH2
SMILES: CCC[C@H](NC(=O)[C@H](CCCNC(=N)N)NC(=O)[C@@H]1CCCN1C(=O)[C@@H](N)CCCN)C(=O)N[C@@H](Cc1ccc(O)cc1)C(=O)N[C@@H](CN)C(=O)N[C@@H](CCC(C)C)C(N)=O
B6: PTR 6402 (peptide)
peptide: Cholesteryloxycarbonyl-[dK][dK][dK]RPR[Nva]Y[Dap][hLeu]K(FITC)-NH2
SMILES: CCC[C@H](NC(=O)[C@H](CCCNC(=N)N)NC(=O)[C@@H]1CCCN1C(=O)[C@H](CCCNC(=N)N)NC(=O)[C@@H](CCCCN)NC(=O)[C@@H](CCCCN)NC(=O)[C@@H](CCCCN)NC(=O)O[C@H]1CC[C@@]2(C)C(=CC[C@H]3[C@@H]4CC[C@H]([C@H](C)CCCC(C)C)[C@@]4(C)CC[C@@H]32)C1)C(=O)N[C@@H](Cc1ccc(O)cc1)C(=O)N[C@@H](CN)C(=O)N[C@@H](CCC(C)C)C(=O)N[C@@H](CCCCNC(=S)Nc1ccc2c(c1)C(=O)OC21c2ccc(O)cc2Oc2cc(O)ccc21)C(N)=O
B7: PTR 6384 (peptide)
peptide: H-[Orn]P[Orn][Nva]Y[Dap][hLeu]-NH2
SMILES: CCC[C@H](NC(=O)[C@H](CCCN)NC(=O)[C@@H]1CCCN1C(=O)[C@@H](N)CCCN)C(=O)N[C@@H](Cc1ccc(O)cc1)C(=O)N[C@@H](CN)C(=O)N[C@@H](CCC(C)C)C(N)=O
B8: PTR 6400 (peptide)
peptide: Cholesteryloxycarbonyl-[dK][dK][dK]KPR[Nva]Y[Dap][hLeu]-NH2
SMILES: CCC[C@H](NC(=O)[C@H](CCCNC(=N)N)NC(=O)[C@@H]1CCCN1C(=O)[C@H](CCCCN)NC(=O)[C@@H](CCCCN)NC(=O)[C@@H](CCCCN)NC(=O)[C@@H](CCCCN)NC(=O)O[C@H]1CC[C@@]2(C)C(=CC[C@H]3[C@@H]4CC[C@H]([C@H](C)CCCC(C)C)[C@@]4(C)CC[C@@H]32)C1)C(=O)N[C@@H](Cc1ccc(O)cc1)C(=O)N[C@@H](CN)C(=O)N[C@@H](CCC(C)C)C(N)=O
B9: PTR 6398 (peptide)
peptide: Cholesteryloxycarbonyl-[dK][dK][dK][Orn]PR[Nva]Y[Dap][hLeu]-NH2
SMILES: CCC[C@H](NC(=O)[C@H](CCCNC(=N)N)NC(=O)[C@@H]1CCCN1C(=O)[C@H](CCCN)NC(=O)[C@@H](CCCCN)NC(=O)[C@@H](CCCCN)NC(=O)[C@@H](CCCCN)NC(=O)O[C@H]1CC[C@@]2(C)C(=CC[C@H]3[C@@H]4CC[C@H]([C@H](C)CCCC(C)C)[C@@]4(C)CC[C@@H]32)C1)C(=O)N[C@@H](Cc1ccc(O)cc1)C(=O)N[C@@H](CN)C(=O)N[C@@H](CCC(C)C)C(N)=O

These binders were tested against protein kinase B (PKB) (assay: cell-based or functional assay).

Point of comparison: B4, “IC50, in vitro kinase assay PKB” value 0.36 µM. Against it:
- {HO‑CO‑(CH2)2‑CO}-[dK][dK][dK]RPR[Nva]Y[Dap][hLeu]-NH2 [PTR 6394] — 28-fold higher, 10 µM
- B1 — 5.6-fold higher, 2 µM
- B2 — 5.6-fold higher, 2 µM
- B3 — 5.6-fold higher, 2 µM
- B5 — higher, > 10 µM
- B6 — within 1.5-fold, 0.5 µM
- B7 — higher, > 10 µM
- {Vitamin E‑CO‑(CH2)2‑CO}-[dK][dK][dK]RPR[Nva]Y[Dap][hLeu]-NH2 [PTR 6396] — 1.8-fold lower, 0.2 µM
- B8 — within 1.5-fold, 0.3 µM
- B9 — within 1.5-fold, 0.3 µM
- {Coumarin‑3‑oyl}-RPR[Nva]Y[Dap][hLeu]-NH2 [PTR 6392] — 14-fold higher, 5 µM

Biological target: protein kinase B (PKB)
Assay: cell-based or functional assay
Remark: another data set of the same source

Point of comparison: {Testosterone‑yl‑O‑CO}-RPR[Nva]YA[hLeu]-NH2 [PTR 6226], “IC50, kinase assay PKB” value 3 µM. Against it:
- Lithocholoyl-RPR[Nva]Y[Dap][hLeu]-NH2 [PTR 6220] — 1.5-fold lower, 2 µM
- {VitE‑Succinate}-RPR[Nva]YA[hLeu]-NH2 [PTR 6242] — 3-fold lower, 1 µM
- {Galactopyranosyl‑O‑CO}-RPR[Nva]Y[Dap][hLeu]-NH2 [PTR 6214] — 3.3-fold higher, 10 µM
- {Testosterone‑yl‑O‑CO}-RPR[Nva]Y[Dap][hLeu]-NH2 [PTR 6212] — 2.3-fold higher, 7 µM
- Lithocholoyl-GRPR[Nva]Y[Dap][hLeu]-NH2 [PTR 6218] — 3.8-fold lower, 0.8 µM
- VitB6-RPR[Nva]Y[Dap][hLeu] [PTR 6232] — 3-fold lower, 1 µM
- VitB6-RPR[Nva]YA[hLeu]-NH2 [PTR 6228] — 1.5-fold lower, 2 µM
